# The supplement of paper PMC10567573
# B1: DCAF4 (parent)
# chain: PGIDRPGMLCSFRIPGAWSCAWSL
# Variants of: B1
# Assay: protein stability index of a GFP-peptide fusion (GPS, HEK-293T) (PSI 1-6); higher = more stable
# Conditions: c terminus: a fixed tail appended
# 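Note: lentivirally expressed fusions sorted by FACS into six bins by GFP to DsRed ratio, PSI derived from sequencing read proportions per bin multiplied by bin number.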
row,Variant,protein stability index
1,PGIDRPGMLCSFRIPGAWSCAWYL [S23Y],3.52
2,PGIDRPGMLCSFRIPGAWSCAWPL [S23P],2.55
3,PGIDRPGMLCSFRIPGAWSCAWVL [S23V],2.27
4,PGIDRPGMLCSFRIPGAWSCAWDL [S23D],2.39
5,PGIDRPGMLCSFRIPGAWSCAWCL [S23C],1.89
6,PGIDRPGMLCSFRIPGAWSCAWIL [S23I],1.75
7,PGIDRPGMLCSFRQPGAWSCAWSL [I14Q],2.64
8,PGIDRPGMLCSFRSPGAWSCAWSL [I14S],2.65
9,PGIDRPGMLCSFRLPGAWSCAWSL [I14L],2.47
10,PGIDRPGMLCSFRGPGAWSCAWSL [I14G],1.54
11,PGIDRPGMLCSFRDPGAWSCAWSL [I14D],2.83
12,PGIDRPGMLCSFRHPGAWSCAWSL [I14H],2.46
13,PGIDRPGMLCSFRNPGAWSCAWSL [I14N],1.5
14,PGIDRPGMLCSFRAPGAWSCAWSL [I14A],1.77
15,PGIDRPGMLCSFRYPGAWSCAWSL [I14Y],2.14
16,PGIDRPGMLCSFRKPGAWSCAWSL [I14K],1.68
17,PGIDRPGMLCSFREPGAWSCAWSL [I14E],1.76
18,PGIDRPGMLCSFRMPGAWSCAWSL [I14M],1.82
19,PGIDRPGMLCSFRWPGAWSCAWSL [I14W],2.12
20,PGIDRPGMLCSFRFPGAWSCAWSL [I14F],2.32
21,PGIDRPGMLCSFRCPGAWSCAWSL [I14C],1.79
22,PGIDRPGMLCSFRRPGAWSCAWSL [I14R],3.12
23,PGIDRPGMLCSFRIPGRWSCAWSL [A17R],3
24,PGIDRPGMLCSFRIPGYWSCAWSL [A17Y],2.95

row,Variant,protein stability index
1,PGIDRPGMLCSFRIPGIWSCAWSL [A17I],2.79
2,PGIDRPGMLCSFRIPGFWSCAWSL [A17F],2.16
3,PGIDRPGMLCSFRIPGPWSCAWSL [A17P],1.61
4,PGIDRPGMLCSFRIPGNWSCAWSL [A17N],2.48
5,PGIDRPGMLCSFRIPGGWSCAWSL [A17G],3.29
6,PGIDRPGMLCSFRIPGEWSCAWSL [A17E],3.28
7,PGIDRPGMLCSFRIPGQWSCAWSL [A17Q],2.13
8,PGIDRPGMLCSFRIPGCWSCAWSL [A17C],2.26
9,PGIDRPGMLCSFRIPGSWSCAWSL [A17S],4.12
10,PGIDRPGMLCSFRIPGDWSCAWSL [A17D],3.01
11,PGIDRPGMLCSFRIPGTWSCAWSL [A17T],1.77
12,PGIDRPGMLCSFRIPGMWSCAWSL [A17M],3.08
13,PGIDRPGMLCSFRIPGLWSCAWSL [A17L],2.79
14,PGIDRPGMLCSFRIPGAWSTAWSL [C20T],2.61
15,PGIDRPGMLCSFRIPGAWSQAWSL [C20Q],1.56
16,PGIDRPGMLCSFRIPGAWSLAWSL [C20L],3.41
17,PGIDRPGMLCSFRIPGAWSWAWSL [C20W],3.93
18,PGIDRPGMLCSFRIPGAWSDAWSL [C20D],2.11
19,PGIDRPGMLCSFRIPGAWSEAWSL [C20E],1.7
20,PGIDRPGMLCSFRIPGAWSMAWSL [C20M],3.55
21,PGIDRPGMLCSFRIPGAWSFAWSL [C20F],4.57
22,PGIDRPGMLCSFRIPGAWSIAWSL [C20I],2.77
23,PGIDRPGMLCSFRIPGAWSGAWSL [C20G],2.95
24,PGIDRPGMLCSFRIPGAWSNAWSL [C20N],2.15

row,Variant,protein stability index
1,PGIDRPGMLCSFRIPGAWSPAWSL [C20P],3.17
2,PGIDRPGMLCSFRIPGAWSVAWSL [C20V],2.58
3,PGIDRPGMLCSFRIPGAWSHAWSL [C20H],2.41
4,PGIDRPGMLCSFRIPGAWSRAWSL [C20R],1.52
5,PGIDRPGMLCSFRIPGAWSKAWSL [C20K],1.81
6,PGIDRPGMLCSFRIPGAWSSAWSL [C20S],3.33
7,PGIDRPGMLCSFRIPGANSCAWSL [W18N],2.54
8,PGIDRPGMLCSFRIPGATSCAWSL [W18T],2.63
9,PGIDRPGMLCSFRIPGAMSCAWSL [W18M],2.71
10,PGIDRPGMLCSFRIPGAPSCAWSL [W18P],2.33
11,PGIDRPGMLCSFRIPGAGSCAWSL [W18G],2.18
12,PGIDRPGMLCSFRIPGASSCAWSL [W18S],2.36
13,PGIDRPGMLCSFRIPGACSCAWSL [W18C],2.32
14,PGIDRPGMLCSFRIPGARSCAWSL [W18R],3.25
15,PGIDRPGMLCSFRIPGAASCAWSL [W18A],3.12
16,PGIDRPGMLCSFRIPGAQSCAWSL [W18Q],2.21
17,PGIDRPGMLCSFRIPGAYSCAWSL [W18Y],3.06
18,PGIDRPGMLCSFRIPGAKSCAWSL [W18K],2.9
19,PGIDRPGMLCSFRIPGALSCAWSL [W18L],2.87
20,PGIDRPGMLCSFRIPGAHSCAWSL [W18H],2.73
21,PGIDRPGMLCSFRIPGADSCAWSL [W18D],1.76
22,PGIDRPGMLCSFRIPGAESCAWSL [W18E],1.68
23,PGIDRPGMLCSFRIPGAVSCAWSL [W18V],3.98
24,PGIDRPGMLCSFYIPGAWSCAWSL [R13Y],2.9

row,Variant,protein stability index
1,PGIDRPGMLCSFFIPGAWSCAWSL [R13F],2.68
2,PGIDRPGMLCSFTIPGAWSCAWSL [R13T],3.39
3,PGIDRPGMLCSFDIPGAWSCAWSL [R13D],1.97
4,PGIDRPGMLCSFLIPGAWSCAWSL [R13L],3.69
5,PGIDRPGMLCSFVIPGAWSCAWSL [R13V],2.94
6,PGIDRPGMLCSFSIPGAWSCAWSL [R13S],2.59
7,PGIDRPGMLCSFPIPGAWSCAWSL [R13P],3.03
8,PGIDRPGMLCSFCIPGAWSCAWSL [R13C],2.03
9,PGIDRPGMLCSFIIPGAWSCAWSL [R13I],3.22
10,PGIDRPGMLCSFHIPGAWSCAWSL [R13H],2.34
11,PGIDRPGMLCSFEIPGAWSCAWSL [R13E],3.65
12,PGIDRPGMLCSFGIPGAWSCAWSL [R13G],2.33
13,PGIDRPGMLCSIRIPGAWSCAWSL [F12I],2.26
14,PGIDRPGMLCSPRIPGAWSCAWSL [F12P],3.71
15,PGIDRPGMLCSQRIPGAWSCAWSL [F12Q],2.67
16,PGIDRPGMLCSKRIPGAWSCAWSL [F12K],1.79
17,PGIDRPGMLCSTRIPGAWSCAWSL [F12T],2.12
18,PGIDRPGMLCSVRIPGAWSCAWSL [F12V],3.38
19,PGIDRPGMLCSNRIPGAWSCAWSL [F12N],2.87
20,PGIDRPGMLCSWRIPGAWSCAWSL [F12W],4.14
21,PGIDRPGMLCSLRIPGAWSCAWSL [F12L],2.62
22,PGIDRPGMLCSSRIPGAWSCAWSL [F12S],2.7
